First the molecules themselves.
B1: hu1C7.v1 (antibody, V domains shown)
VH: EVQLLESGGGLVQPGGSLRLSCAASGFTFSSYGMSWVRQAPGKGLEWVSSISGDGGSYIHYADSVKGRFTISRDNSKNTLYLQMNSLRAEDTAVYYCARLPYWGQGTLVTVSS
VL: DIVMTQSPDSLAVSLGERATINCKSSQSLLNSGNQKNYLTWYQQKPGQPPKLLIYWASTRESGVPDRFSGSGSGTDFTLTISSLQAEDVAVYYCQQYNSYPLTFGQGTKVEIKR
B2: Clone with H1_1 (antibody, V domains shown)
VH: EVQLLESGGGLVQPGGSLRLSCAASGFKFSRVGVSWVRQAPGKGLEWVASISGDGGSYIHYADSVKGRFTISRDNSKNTLYLQMNSLRAEDTAVYYCARLPYWGQGTLVTVSS
VL: DIVMTQSPDSLAVSLGERATINCKSSQSLLNSGNQKNYLTWYQQKPGQPPKLLIYWASTRESGVPDRFSGSGSGTDFTLTISSLQAEDVAVYYCQQYNSYPLTFGQGTKVEIKR
B3: Clone with L1_3 (antibody, V domains shown)
VH: EVQLLESGGGLVQPGGSLRLSCAASGFTFSSYGMSWVRQAPGKGLEWVASISGDGGSYIHYADSVKGRFTISRDNSKNTLYLQMNSLRAEDTAVYYCARLPYWGQGTLVTVSS
VL: DIVMTQSPDSLAVSLGERATINCKSSQSLHRSGTQKDYLVWYQQKPGQPPKLLIYWASTRESGVPDRFSGSGSGTDFTLTISSLQAEDVAVYYCQQYNSYPLTFGQGTKVEIK
notes: IgG based on hu1C7.v2
B4: Clone with L1_3 and H1_1 (antibody, V domains shown)
VH: EVQLLESGGGLVQPGGSLRLSCAASGFKFSRVGVSWVRQAPGKGLEWVASISGDGGSYIHYADSVKGRFTISRDNSKNTLYLQMNSLRAEDTAVYYCARLPYWGQGTLVTVSS
VL: DIVMTQSPDSLAVSLGERATINCKSSQSLHRSGTQKDYLVWYQQKPGQPPKLLIYWASTRESGVPDRFSGSGSGTDFTLTISSLQAEDVAVYYCQQYNSYPLTFGQGTKVEIK
notes: IgG based on hu1C7.v2
B5: Clone with L1_1 (antibody, V domains shown)
VH: EVQLLESGGGLVQPGGSLRLSCAASGFTFSSYGMSWVRQAPGKGLEWVASISGDGGSYIHYADSVKGRFTISRDNSKNTLYLQMNSLRAEDTAVYYCARLPYWGQGTLVTVSS
VL: DIVMTQSPDSLAVSLGERATINCKSSHSLYSSRRHKHYLAWYQQKPGQPPKLLIYWASTRESGVPDRFSGSGSGTDFTLTISSLQAEDVAVYYCQQYNSYPLTFGQGTKVEIKR
B6: Clone with L1_3 and H1_4 (antibody, V domains shown)
VH: EVQLLESGGGLVQPGGSLRLSCAASGFRFSGPGMSWVRQAPGKGLEWVASISGDGGSYIHYADSVKGRFTISRDNSKNTLYLQMNSLRAEDTAVYYCARLPYWGQGTLVTVSS
VL: DIVMTQSPDSLAVSLGERATINCKSSQSLHRSGTQKDYLVWYQQKPGQPPKLLIYWASTRESGVPDRFSGSGSGTDFTLTISSLQAEDVAVYYCQQYNSYPLTFGQGTKVEIK
notes: IgG based on hu1C7.v2
B7: Clone with H1_5 (antibody, V domains shown)
VH: EVQLLESGGGLVQPGGSLRLSCAASVIKWRIYGMSWVRQAPGKGLEWVASISGDGGSYIHYADSVKGRFTISRDNSKNTLYLQMNSLRAEDTAVYYCARLPYWGQGTLVTVSS
VL: DIVMTQSPDSLAVSLGERATINCKSSQSLLNSGNQKNYLTWYQQKPGQPPKLLIYWASTRESGVPDRFSGSGSGTDFTLTISSLQAEDVAVYYCQQYNSYPLTFGQGTKVEIKR
B8: Clone with H1_4 (antibody, V domains shown)
VH: EVQLLESGGGLVQPGGSLRLSCAASGFRFSGPGMSWVRQAPGKGLEWVASISGDGGSYIHYADSVKGRFTISRDNSKNTLYLQMNSLRAEDTAVYYCARLPYWGQGTLVTVSS
VL: DIVMTQSPDSLAVSLGERATINCKSSQSLLNSGNQKNYLTWYQQKPGQPPKLLIYWASTRESGVPDRFSGSGSGTDFTLTISSLQAEDVAVYYCQQYNSYPLTFGQGTKVEIKR
notes: IgG based on hu1C7.v2
B9: Clone with H1_2 (antibody, V domains shown)
VH: EVQLLESGGGLVQPGGSLRLSCAASGFTFSRVGTSWVRQAPGKGLEWVASISGDGGSYIHYADSVKGRFTISRDNSKNTLYLQMNSLRAEDTAVYYCARLPYWGQGTLVTVSS
VL: DIVMTQSPDSLAVSLGERATINCKSSQSLLNSGNQKNYLTWYQQKPGQPPKLLIYWASTRESGVPDRFSGSGSGTDFTLTISSLQAEDVAVYYCQQYNSYPLTFGQGTKVEIKR
notes: IgG based on hu1C7.v2
B10: Clone with L1_3 and H3_1 (antibody, V domains shown)
VH: EVQLLESGGGLVQPGGSLRLSCAASGFTFSSYGMSWVRQAPGKGLEWVASISGDGGSYIHYADSVKGRFTISRDNSKNTLYLQMNSLRAEDTAVYYCAKLPFWGQGTLVTVSS
VL: DIVMTQSPDSLAVSLGERATINCKSSQSLHRSGTQKDYLVWYQQKPGQPPKLLIYWASTRESGVPDRFSGSGSGTDFTLTISSLQAEDVAVYYCQQYNSYPLTFGQGTKVEIK
notes: IgG based on hu1C7.v2
B11: Clone with H3_1 (antibody, V domains shown)
VH: EVQLLESGGGLVQPGGSLRLSCAASGFTFSSYGMSWVRQAPGKGLEWVASISGDGGSYIHYADSVKGRFTISRDNSKNTLYLQMNSLRAEDTAVYYCAKLPFWGQGTLVTVSS
VL: DIVMTQSPDSLAVSLGERATINCKSSQSLLNSGNQKNYLTWYQQKPGQPPKLLIYWASTRESGVPDRFSGSGSGTDFTLTISSLQAEDVAVYYCQQYNSYPLTFGQGTKVEIKR
B12: Clone with L1_3-11 (antibody, V domains shown)
VH: EVQLLESGGGLVQPGGSLRLSCAASGFTFSSYGMSWVRQAPGKGLEWVASISGDGGSYIHYADSVKGRFTISRDNSKNTLYLQMNSLRAEDTAVYYCARLPYWGQGTLVTVSS
VL: DIVMTQSPDSLAVSLGERATINCKSSQSLHRSGTQKDYLAWYQQKPGQPPKLLIYWASTRESGVPDRFSGSGSGTDFTLTISSLQAEDVAVYYCQQYNSYPLTFGQGTKVEIK
notes: based on hu1C7.v2
B13: Clone with L1_3-10 (antibody, V domains shown)
VH: EVQLLESGGGLVQPGGSLRLSCAASGFTFSSYGMSWVRQAPGKGLEWVASISGDGGSYIHYADSVKGRFTISRDNSKNTLYLQMNSLRAEDTAVYYCARLPYWGQGTLVTVSS
VL: DIVMTQSPDSLAVSLGERATINCKSSQSLHRSGTQKNYLVWYQQKPGQPPKLLIYWASTRESGVPDRFSGSGSGTDFTLTISSLQAEDVAVYYCQQYNSYPLTFGQGTKVEIK
notes: based on hu1C7.v2
B14: Clone with L1_3-7 (antibody, V domains shown)
VH: EVQLLESGGGLVQPGGSLRLSCAASGFTFSSYGMSWVRQAPGKGLEWVASISGDGGSYIHYADSVKGRFTISRDNSKNTLYLQMNSLRAEDTAVYYCARLPYWGQGTLVTVSS
VL: DIVMTQSPDSLAVSLGERATINCKSSQSLHKSGTQKDYLVWYQQKPGQPPKLLIYWASTRESGVPDRFSGSGSGTDFTLTISSLQAEDVAVYYCQQYNSYPLTFGQGTKVEIK
notes: based on hu1C7.v2
B15: Clone with L1_3-9 (antibody, V domains shown)
VH: EVQLLESGGGLVQPGGSLRLSCAASGFTFSSYGMSWVRQAPGKGLEWVASISGDGGSYIHYADSVKGRFTISRDNSKNTLYLQMNSLRAEDTAVYYCARLPYWGQGTLVTVSS
VL: DIVMTQSPDSLAVSLGERATINCKSSQSLHRSGNQKDYLVWYQQKPGQPPKLLIYWASTRESGVPDRFSGSGSGTDFTLTISSLQAEDVAVYYCQQYNSYPLTFGQGTKVEIK
notes: based on hu1C7.v2
B16: Clone with L1_3-8 (antibody, V domains shown)
VH: EVQLLESGGGLVQPGGSLRLSCAASGFTFSSYGMSWVRQAPGKGLEWVASISGDGGSYIHYADSVKGRFTISRDNSKNTLYLQMNSLRAEDTAVYYCARLPYWGQGTLVTVSS
VL: DIVMTQSPDSLAVSLGERATINCKSSQSLHLSGTQKDYLVWYQQKPGQPPKLLIYWASTRESGVPDRFSGSGSGTDFTLTISSLQAEDVAVYYCQQYNSYPLTFGQGTKVEIK
notes: based on hu1C7.v2

In the first experiment the target is T1, full-length human Tau (Tau441; 2N4R), recombinant (human, UniProt P10636 1-758).
T1 construct: made in E. coli, His6-Smt3 tag removed; biotinylated through amines for Octet and phage work; also called r-Tau; recombinant Tau
T1 sequence (P10636 other isoform, or with tags, fused parts or gaps limits assumed): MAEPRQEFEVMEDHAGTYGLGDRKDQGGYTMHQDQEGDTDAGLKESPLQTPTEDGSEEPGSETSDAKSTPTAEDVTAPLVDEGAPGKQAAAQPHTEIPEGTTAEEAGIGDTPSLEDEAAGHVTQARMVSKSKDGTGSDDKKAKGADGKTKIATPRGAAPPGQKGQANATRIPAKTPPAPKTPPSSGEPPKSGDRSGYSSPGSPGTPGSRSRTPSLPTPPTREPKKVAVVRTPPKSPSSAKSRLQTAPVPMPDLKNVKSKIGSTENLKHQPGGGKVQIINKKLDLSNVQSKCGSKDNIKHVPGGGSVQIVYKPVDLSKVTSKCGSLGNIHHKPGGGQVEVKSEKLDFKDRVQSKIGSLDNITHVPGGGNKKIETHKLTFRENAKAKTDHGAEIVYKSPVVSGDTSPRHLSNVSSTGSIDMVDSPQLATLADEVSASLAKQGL
The experiment can be described thus: SPR Biacore. Background: SPR reads the build-up and loss of mass on a sensor chip optically.
One may read the Kd as the free concentration of one partner at which half of the binding sites on the other are occupied at equilibrium, for simple one-to-one binding. B1: the Kd is about 1600 pM and the “fold weaker binding than chimeric 1C7” value was about 2 fold.

The target of a further experiment is T1, full-length human Tau (Tau441; 2N4R), …. The experiment can be described thus: SPR Biacore. This is another data set of the same source.
Broadly, the koff is the first-order rate constant of dissociation. As usually defined, the kon is the rate constant with which the complex forms. For the molecule B2, the Kd stood at 122 pM, the koff came out at 0.000252 s⁻¹ and the kon came out at 2.07e+06 M⁻¹ s⁻¹.
For B3, the Kd is 133 pM, the koff is 0.000286 s⁻¹ and the kon came out at 2.15e+06 M⁻¹ s⁻¹.
In the same order, the values of B4 are 69 pM, 0.000113 s⁻¹ and 1.64e+06 M⁻¹ s⁻¹.
As for B5, the dissociation constant (Kd) was found to be 192 pM, the dissociation rate constant (koff) was 0.000297 s⁻¹ and the kon turned out to be 1.54e+06 M⁻¹ s⁻¹.
Take B6: the Kd amounted to 38 pM, the koff was determined as 8.72e-05 s⁻¹ and the kon amounted to 2.28e+06 M⁻¹ s⁻¹.
Take B7: the dissociation constant Kd is 183 pM, the koff was 0.000244 s⁻¹ and the kon was found to be 1.34e+06 M⁻¹ s⁻¹.
In the case of B8, the Kd amounted to 174 pM, the koff turned out to be 0.00023 s⁻¹ and the kon worked out at 1.32e+06 M⁻¹ s⁻¹.
The like results for B9 were, in that order, 92 pM, 0.000144 s⁻¹ and 1.56e+06 M⁻¹ s⁻¹.
B10: the Kd came to 62 pM, the koff worked out at 0.000145 s⁻¹ and the association rate constant (kon) came to 2.36e+06 M⁻¹ s⁻¹.
In the same order, the values of B11 are 242 pM, 0.000478 s⁻¹ and 1.97e+06 M⁻¹ s⁻¹.

For another experiment the target is unchanged. The experiment is described as follows: SPR Biacore. The source holds these as a separate data set. Here is the method:
IgG was purified with protein A affinity chromatography. The affinity of each hulC7 IgG variant for r-Tau was determined by surface plasmon resonance using a Biacore™ T200 instrument. Biacore™ Series S CM5 sensor chips were immobilized with monoclonal mouse anti-human IgG (Fc) antibody (Human antibody capture kit from GE Healthcare). Serial 3-fold dilutions of each hulC7 variant were injected at a flow rate of […]. Each sample was analyzed with 3-minute association and 10-minute dissociation. After each injection, the chip was regenerated using 3 M MgCl₂. Binding response was corrected by subtracting the RU from a flow cell capturing an irrelevant IgG at similar density. A 1:1 Languir model of simultaneous fitting of kₒₙ and koff was used for kinetics analysis.
A further round of affinity maturation was performed by mutating certain amino acids in selected CDR-H1, CDR-L1, and CDR-L3 sequences from Table 9A, as well as the sequence of CDR-H2 (SEQ ID NO:23) of hulC7.v2. Sequence changes were identified in each CDR (Table 9B). Binding affinities were evaluated using Biacore™ (Table 10B).
As for B3, the Kd is 109 pM, the koff is 0.000133 s⁻¹ and the on-rate constant (kon) worked out at 1.22e+06 M⁻¹ s⁻¹.
In the same order, the values of B12 are 231 pM, 0.000223 s⁻¹ and 965000 M⁻¹ s⁻¹.
Turning to B13, the Kd is 157 pM, the koff was 0.000147 s⁻¹ and the on-rate constant (kon) was 937000 M⁻¹ s⁻¹.
Regarding B8, the equilibrium dissociation constant (Kd) came out at 333 pM, the koff turned out to be 0.000188 s⁻¹ and the on-rate constant (kon) was 564000 M⁻¹ s⁻¹.
The like results for B14 were, in that order, 275 pM, 0.000308 s⁻¹ and 1.12e+06 M⁻¹ s⁻¹.
In the same order, the values of B9 are 478 pM, 0.000132 s⁻¹ and 276000 M⁻¹ s⁻¹.
The like results for B15 were, in that order, 136 pM, 0.000154 s⁻¹ and 1.13e+06 M⁻¹ s⁻¹.
In the case of B16, the Kd was 510 pM, the koff is 0.000391 s⁻¹ and the kon stood at 767000 M⁻¹ s⁻¹.
